# Experimental data from patent publication US20240279618A1, “RECEPTOR TYROSINE KINASE AGONIST, COMPOSITION FOR CELL CULTURE MEDIUM, AND […] MAINTENANCE COMPOSITION” (SEKISUI CHEMICAL CO., LTD., priority 2021, published 2024).
# B1: #1-L4-#1: dimer of VHH #1 with linker L4 (GSEGKSSGSGSESKST), SEQ ID NO: 23 (protein)
# VHH: QLQLVESGGGSVQAGGSLRLSCAASRSLSRFNVWTWYRQAPVKQRELVASITKSGDTNYAESVKGRFIISRDDDKNTVYLQMNNLKSEDTGIYYCAGSYYSGSYLYPSPGGFSVWGQGTQVTVSSGSEGKSSGSGSESKSTQLQLVESGGGSVQAGGSLRLSCAASRSLSRFNVWTWYRQAPVKQRELVASITKSGDTNYAESVKGRFIISRDDDKNTVYLQMNNLKSEDTGIYYCAGSYYSGSYLYPSPGGFSVWGQGTQVTVSS
# modifications: #1-L4-#1
# What was measured:
# [1] = test system: human bone marrow-derived MSC; assay: MSC culture: evaluation of cell growth and morphology; type: cell-based; parameters: key to P3 Growth rate / P4 Growth rate / P5 Growth rate: cells per well at passage divided by cells at seeding; details: for P2 Count (3-well) / P2 Growth rate / P3 Count (3-well) / P3 Growth rate / P4 Count (3-well) / P4 Growth rate / P5 Count (3-well) / P5 Growth rate / cumulative number of cells (average value), P1 / cumulative number of cells (average value), P2 / cumulative number of cells (average value), P3 / cumulative number of cells (average value), P4 / cumulative number of cells (average value), P5 / P1 Count (2-well): MSC, 20 ng/mL; for cumulative number of cells (average value), P1: culture day 5; for cumulative number of cells (average value), P2: culture day 10; for cumulative number of cells (average value), P3: culture day 15; for cumulative number of cells (average value), P4: culture day 20; for cumulative number of cells (average value), P5: culture day 25; for growth performance of MSC (cumulative number of cells): regardless of the FBS concentration (10% or 20%); for morphology of MSC: 4 passages, Day 1
# Protocol: 10 mL of a used portion of D-MEM medium (Low Glucose, Glutamine) (Fujifilm Wako Pure Chemical Corporation, C/N: 041-29775) was added to a 15 mL PP tube, and warmed in a thermostatic water tank (set at 37° C.). A human bone marrow-derived MSC (Stemcell Technologies, C/N: 70022) stock tube preserved in a liquid nitrogen gas phase was taken out from a liquid nitrogen container and thawed in a thermostatic water tank (set at 37° C.). Thereafter, the cells were rapidly moved with a pipette into the tube (including 10 mL of the medium) that had been heated to 37° C. in a clean bench, and mixed by pipetting. The tube was centrifuged (300× g, 5 minutes) and the supernatant was removed with an aspirator.
# An appropriate amount of D-MEM that had been warmed to room temperature was added to a cell pellet and mixed, and then the number of cells was evaluated with a cell counter. An appropriate amount of the cell suspension was taken into a 15 mL PP tube and centrifuged (300× g, 5 minutes). The supernatant was removed, an appropriate amount of D-MEM (containing 10% or 20% of FBS (Thermo Fisher Scientific Inc., 16140071); the stock was preserved under refrigeration and used within 2 weeks) was added to a cell pellet to adjust a cell suspension (1).
# The number of cells was evaluated again with a cell counter and the cells were appropriately diluted with each of the media. Next, a stock of basic FGF or VHH was added to the cell suspension (1), so that each of the final concentrations was 1 ng/ml or ng/mL. Seeding was performed onto a CellBIND 6-well plate (Coming, C/N: 3335) at a density of 3-5×10^4/well, and after 2 to 4 days, medium exchange was performed using D-MEM (containing 10% FBS or 20% FBS).
# The cells were observed under a microscope, and basically, passage was carried out after 5 days from seeding. In advance, the used D-MEM (0% FBS, 10% FBS, or 20% FBS) was warmed in advance in a thermostatic water tank (set at 37° C.). After washing the cells with D-PBS, 500 μL of TrypLE Express was added thereto and the cells were left to stand in a CO2 incubator. After 5 to 10 minutes, the culture container was removed from the CO2 incubator, and a change in cell morphology was confirmed under a microscope. Thereafter, 1 mL of D-MEM was added to each well, and the cells were released by pipetting, suspended, and then recovered in a 15 mL PP tube.
# The tube was centrifuged (300× g, 5 minutes) and the supernatant was removed with an aspirator. An appropriate amount of a D-MEM medium (containing 10% FBS or 20% FBS) was added to the cell pellet, and mixed by pipetting. A part of the cell suspension was collected and the number of cells was evaluated with a cell counter. After counting the […] in each well, the cell suspensions in the same group were collected in one tube and mixed together. The average value of individual wells was used to calculate the number of cells at the time of passage.
# The cell suspension was appropriately diluted with D-MEM (10% FBS or 20% FBS). The cells were seeded on a new CellBIND 6-well plate at […] cells/well. Furthermore, one well was adjusted to 2 mL/well. After 2 to 4 days, medium exchange was performed with a medium at room temperature.
# The average value of the counts of number of cells per well acquired during the passage was used to create a cell growth straight line. In addition, a value obtained by dividing the number of cells per well at the time of passage by the number of cells at the time of seeding was defined as a growth rate during that period, and the rate was used at the time of calculating a cumulative number of cells. In a case in which the number of cells per well at the time of initial seeding is defined as P(0) and the time of the N^th passage is defined as P(N), the cumulative number of cells at each passage is determined by the following calculation equation. […]
# [2] = test system: NIH3T3 (mouse fibroblast cell line); assay: Inhibition of growth factor activity of VHH homodimer by FGFR antagonist; type: cell-based; details: 10 or 100 ng/mL test substance, 20 nM NVP-BGJ398
# Protocol: The cell growth assay for FGF2 was performed according to the following procedure. On Day 1, a suspension including 2.5×10^4 cells/mL of NIH3T3 in DMEM of 10% CS and PS(+) was created, seeded on a CulturPlate-96 (White Opaque 96-well Microplate, manufactured by Perkin Elmer, Cat #6005680) at 100 μL/well, and cultured in a 5% CO2 incubator at 37° C. for 16 to 24 hours. On Day 2, the medium was replaced with FGF2 (PeproTech Cat #AF-100-18B) or serum-free PS(+) DMEM including various test substances, and the cells were further cultured for 2 days. On Day 4, the 96-well plate was left at room temperature for 30 minutes, and then 100 μL of Cell Titer Glo 2.0 Reagent (manufactured by Promega Corporation) at room temperature was added to each well, followed by stirring at 500 rpm for 2 minutes using a plate mixer. The plate was further left to stand for 8 minutes, and then the luminescence in each well was measured with a Synergy HTX plate reader (manufactured by BioTek) with a sensitivity set (Gain) of 200 and a measurement time of 1 s/well.
# The addition amounts of FGF2 and #1L4 (hereinafter also referred to as “#1-L4-#1”), which is a dimer of VHH #1 with a linker […], were each 10 or 100 ng/mL.
# [3] = FBS 10%, cells at passage divided by cells at seeding
# [4] = FBS 10%, number of cells (average value) at passage P1
Molecule,P2 Count (3-well) ([1]; FBS 10%),"P2 Growth rate [1, 3]",P3 Count (3-well) ([1]; FBS 10%),P3 Growth rate ([1]; FBS 10%),P4 Count (3-well) ([1]; FBS 10%),P4 Growth rate ([1]; FBS 10%),P5 Count (3-well) ([1]; FBS 10%),P5 Growth rate ([1]; FBS 10%),"cumulative number of cells (average value), P1 ([1]; FBS 10%)","cumulative number of cells (average value), P2 ([1]; FBS 10%)","cumulative number of cells (average value), P3 ([1]; FBS 10%)","cumulative number of cells (average value), P4 ([1]; FBS 10%)","cumulative number of cells (average value), P5 ([1]; FBS 10%)","P1 Count (2-well) [1, 4]","P1 Count (2-well) ([1]; FBS 20%, P1)",P2 Count (3-well) ([1]; FBS 20%),P2 Growth rate ([1]; FBS 20%),P3 Count (3-well) ([1]; FBS 20%),P3 Growth rate ([1]; FBS 20%),P4 Count (3-well) ([1]; FBS 20%),further results
"FGF2: fibroblast growth factor (basic), human, recombinant (154aa), positive control; SEQ ID NO: 58 [reference compound]",3.6E+05,7.2,3.5E+05,7.0,3.0E+05,6.0,2.0E+05,3.9,6.8E+05,4.9E+06,3.4E+07,2.1E+08,8.1E+08,6.8E+05,1.2E+06,5.3E+05,10.7,6.6E+05,13.2,5.5E+05,"P4 Growth rate ([1]; FBS 20%): 10.9; P5 Count (3-well) ([1]; FBS 20%): 3.6E+05; P5 Growth rate ([1]; FBS 20%): 7.2; cumulative number of cells (average value), P1 ([1]; FBS 20%): 1.2E+06; cumulative number of cells (average value), P2 ([1]; FBS 20%): 1.3E+07; cumulative number of cells (average value), P3 ([1]; FBS 20%): 1.7E+08; cumulative number of cells (average value), P4 ([1]; FBS 20%): 1.8E+09; cumulative number of cells (average value), P5 ([1]; FBS 20%): 1.3E+10; growth performance of MSC (cumulative number of cells) [1]: almost the same growth performance; cell growth activity with addition of NVP-BGJ398 [2]: inhibited"
B1,4.3E+05,8.5,3.7E+05,7.5,2.9E+05,5.8,2.2E+05,4.3,6.3E+05,5.4E+06,4.0E+07,2.3E+08,1.0E+09,6.3E+05,1.3E+06,8.4E+05,16.7,6.9E+05,13.7,4.9E+05,"morphology of MSC ([1]; 10% FBS, low concentration (1 ng/mL)): flattened morphology; morphology of MSC ([1]; 20% FBS): same morphology was exhibited regardless of the addition concentration; P4 Growth rate ([1]; FBS 20%): 9.7; P5 Count (3-well) ([1]; FBS 20%): 4.3E+05; P5 Growth rate ([1]; FBS 20%): 8.7; cumulative number of cells (average value), P1 ([1]; FBS 20%): 1.3E+06; cumulative number of cells (average value), P2 ([1]; FBS 20%): 2.1E+07; cumulative number of cells (average value), P3 ([1]; FBS 20%): 2.9E+08; cumulative number of cells (average value), P4 ([1]; FBS 20%): 2.8E+09; cumulative number of cells (average value), P5 ([1]; FBS 20%): 2.4E+10; growth performance of MSC (cumulative number of cells) [1]: almost the same growth performance; cell growth activity with addition of NVP-BGJ398 [2]: inhibited"
